The target of this series is Influenza A nucleoprotein (NP), wild type (Influenza A virus A/WSN/33 (H1N1), UniProt P15682 1-498). As to the kind of experiment: EMSA. A general note: Mobility shift assays separate free from complexed probe on a gel.

We go through one molecule from article PMC7097325.

With UUUGUUACACACACACACGCUGUG (ssRNA) [24-nt RNA oligomer], the binding result was “binds”.
